Assay results from patent US7217548B2, “N-acetylglucosaminlytransferase and polynucleotide encoding the same” (National Institute of Advanced Industrial Science and …, priority 2000, dated 2007).

System: T1, CC(=O)N[C@@H](C)C(=O)N[C@@H](C)C(=O)N1CCC[C@H]1C(=O)N[C@H](C(=O)N1CCC[C@H]1C(=O)N[C@H](C(=O)N[C@@H](C)C(=O)N[C@@H](C)C(=O)N1CCC[C@H]1C(N)=O)C(C)C)[C@@H](C)O[C@H]1O[C@H](CO)[C@@H](O)[C@H](O)[C@@H]1O
T1 construct: 595 amino acids from 66: Ser thereof (66: Ser to 660: Thr), respectively; Ig kappa chain secretory signal (N); made in house; host or cells: HEK293T (transient, secreted into serum-free medium)
Assay: Substrate specificity and kinetic parameters of solubilized human OMGnT enzyme (L)
Type: biochemical
Conditions: other: 125 mM MOPS pH7.3, 0.2 mM UDP-GlcNAc, 7.5 mM MnCl2, 37° C., 2 hours, pH 7.3
Method: […] […] The reaction mixture was then filtered with a filter Ultrafree-MC (Millipore) having a pore size of 0.22 μm to remove solids, and analyzed by Wakopak 5C18-200 column (4.6×250 mm, Wako Pure Chemical Industries, Ltd.). The separation was carried out using concentration gradient with Solution A and Solution B at a flow rate of 1.0 ml/min. […] Peptide detection was carried out at 214 nm, and the radioactivity of each fraction was assayed using a liquid scintillation counter.
The activity of GnT-1 was assayed with a method by Yoshida et al. [Yoshida, S., Suzuki, M., Yamano, S., Takeuchi, M., Ikenaga, H., Kioka, N., Sakai, H., and Komano, T., Glycobiology, (1999), 9, 53–58] as described below. A 20 μl reaction solution was prepared by adding an enzyme source thereto so as to have a final concentration of 100 mM MES (pH 6.0), 20 mM MnCl2, 5 μM Manα1–6(Manα1–3)Manα1–6(Manα1–3)Manβ1–4GlcNAcβ1–4GlcNAc-PA(M5GN2-PA; Takara Shuzo, PA-Sugar Chain 017), 1 mM UDP-GlcNAc, 100 mM GlcNAc, 5 mM AMP, 1% Triton X-100, and 0.2% BSA. The reaction solution was incubated at 37° C. for 1 hour, and the reaction was terminated in boiling water. Thereafter, the reaction solution was analyzed by a reverse phase HPLC (Cosmosil 5C18-AR column) available from Nacalai Tesque. […]

His-Xpress-sOMGnT(L) (Homo sapiens; M623V), sequence (chain, as listed by the source M623V): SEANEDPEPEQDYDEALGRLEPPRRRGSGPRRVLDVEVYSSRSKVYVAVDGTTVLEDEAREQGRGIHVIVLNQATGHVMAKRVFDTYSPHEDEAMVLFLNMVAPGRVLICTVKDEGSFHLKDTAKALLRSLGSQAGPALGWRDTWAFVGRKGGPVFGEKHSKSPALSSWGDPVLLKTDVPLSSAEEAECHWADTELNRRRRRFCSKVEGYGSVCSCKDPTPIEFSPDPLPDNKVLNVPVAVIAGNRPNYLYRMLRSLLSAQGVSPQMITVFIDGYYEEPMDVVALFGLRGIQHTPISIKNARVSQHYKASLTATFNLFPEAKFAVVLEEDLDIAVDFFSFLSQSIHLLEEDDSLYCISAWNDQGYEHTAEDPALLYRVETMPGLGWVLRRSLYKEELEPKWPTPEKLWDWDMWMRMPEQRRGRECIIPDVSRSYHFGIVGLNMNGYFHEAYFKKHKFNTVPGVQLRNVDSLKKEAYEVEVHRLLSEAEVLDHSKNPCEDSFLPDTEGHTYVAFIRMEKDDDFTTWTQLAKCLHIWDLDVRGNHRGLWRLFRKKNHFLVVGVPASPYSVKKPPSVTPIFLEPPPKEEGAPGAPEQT

His-Xpress-sOMGnT(L) (Homo sapiens; M623V)
Km: 1850 µM
